In patent publication US20230049152A1 (Genentech, published 2023):

Target: T1, human CCR8 (human, UniProt P51685 1-355)
T1 construct: the assay field says which; also called hCCR8; huCCR8
Experiment: flow cytometry, human colorectal cancer dissociated tumor cells, 2 ug/mL mAb, AF647 anti-human IgG; CCR8 read on Treg cells
Experimental: The mAbs were evaluated for binding to regulatory T cells (Treg cells or Tregs) by Fluorescence-Activated Cell Sorting (FACS) flow cytometry. Human colorectal dissociated tumor cells (DTC) (Discovery Life Sciences) were thawed according to vendor's protocol. Cells were surface stained with eFluor 780-conjugated Fixable Viability Dye (ThermoFisher Scientific) and 2 ug/mL mAb specific for CCR8, OX40 (positive control), Herceptin (negative control), or anti-hIgG (negative control) for 20 min at 4° C. followed by secondary detection with AF647-conjugated AffiniPure F(ab′)2 Fragment Goat anti-Human IgG, Fcg fragment-specific (Jackson ImmunoResearch) for 10 min at 4° C. Cells were then intracellularly stained using the eBioscience Foxp3/Transcription Factor Staining Buffer Set (ThermoFisher Scientific) according to the manufacturer's protocol. […] Shown in FIG. 1 are mean fluorescent intensity (MFI) values for CD8 T cells (defined as CD45+CD14−CD3+CD8+CD4−) (circles, ◯), conventional CD4 T cells (defined as CD45+CD14−CD3+CD8−CD4+FOXP3−) (squares, □), and Treg cells (defined as CD45+CD14−CD3+CD8−CD4+FOXP3+) (triangles, ▴). Three of the five CCR8 mAb clones specifically stained Treg cells and not conventional CD4 or CD8 T cells and were ranked according to CCR8 MFI, greater than 500 MFI: hu.Ab4.H1L1>hu.Ab5.H1L1>hu.Ab3.H1L1. […]

binding result: binds
B1: hu.Ab2.H1L1 (antibody, human IgG1, kappa, V domains shown)
VH: EQQLVESGGGVVQPGRSLRLSCAASGFSFSYGYDMCWVRQAPGKGLEWIACISAGSSDNTWYASWAKGRFTISKDTSKTTVYLQMNSLRAEDTAVYFCSRYLGLWGPGTLVTVSS
VL: EQVLTQSPGTLSLSPGERATLSCQSSKSVNNNNLAWYQQKPGQPPRLLIYFASALASGVPDRFSGSGSGTDFTLTISRLEPEDFAVYYCQGAYSGGSDSYAFGGGTKVEIKR
notes: humanized rabbit anti-CCR8 antibody, human IgG1
